{"source": "patent US20210221876A1", "key": {"[1]": {"target": "h12H4 light chain P95Gz mutant", "sequence (VH, as listed by the source, chain 1 of 2)": "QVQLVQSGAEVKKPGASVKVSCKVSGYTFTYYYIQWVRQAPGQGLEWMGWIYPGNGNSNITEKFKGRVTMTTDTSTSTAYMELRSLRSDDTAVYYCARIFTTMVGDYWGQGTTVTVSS", "sequence (VL, as listed by the source, chain 2 of 2)": "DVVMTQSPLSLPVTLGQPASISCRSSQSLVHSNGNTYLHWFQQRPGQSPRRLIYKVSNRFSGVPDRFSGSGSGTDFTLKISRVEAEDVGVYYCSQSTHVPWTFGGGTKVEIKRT", "experiment": "competitive ELISA; row P95Gz (light chain CDR3 mutant of h12H4); reference wt h12H4"}, "[2]": {"target": "h12H4 heavy chain P52bG mutant", "sequence (VH, as listed by the source limits assumed, chain 1 of 2)": "as the sequence (VH, as listed by the source, chain 1 of 2) above, with P53G counted along it", "sequence (VL, as listed by the source limits assumed, chain 2 of 2)": "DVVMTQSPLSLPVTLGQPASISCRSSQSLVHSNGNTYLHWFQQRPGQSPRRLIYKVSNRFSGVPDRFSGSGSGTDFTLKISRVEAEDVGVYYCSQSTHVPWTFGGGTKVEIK", "experiment": "competitive ELISA; row P52bG (heavy chain CDR2 mutant of h12H4); reference wt h12H4"}, "[3]": {"target": "h12H4 heavy chain Y52aF mutant", "sequence (VH, as listed by the source limits assumed, chain 1 of 2)": "as the sequence (VH, as listed by the source, chain 1 of 2) above, with Y52F counted along it", "sequence (VL, as listed by the source limits assumed, chain 2 of 2)": "as the sequence (VL, as listed by the source limits assumed, chain 2 of 2) above", "experiment": "competitive ELISA; row Y52aF (heavy chain CDR2 mutant of h12H4); reference wt h12H4"}}}
{"binder": "SVNVDKQPKYEYSL", "note": "[peptide … (hCE3C peptide, without the N-terminal Cys)]", "values": [{"measurement": "IC50 ratio (mutant/wt) (ratio (mutant/wt))", "setting": "[1]", "value": 1.5}, {"measurement": "IC50 ratio (mutant/wt) (ratio (mutant/wt))", "setting": "[2]", "value": 1}, {"measurement": "IC50 ratio (mutant/wt) (ratio (mutant/wt))", "setting": "[3]", "value": 1.4}]}
